Laboratory results: article doi:10.1101/2020.12.04.411645

Biological target: MBP-tagged full-length CYRI-A (mouse) (UniProt Q8BHZ0)
Assay: SPR

MBP-tagged full-length CYRI-A (mouse), sequence (Q8BHZ0 whole entry): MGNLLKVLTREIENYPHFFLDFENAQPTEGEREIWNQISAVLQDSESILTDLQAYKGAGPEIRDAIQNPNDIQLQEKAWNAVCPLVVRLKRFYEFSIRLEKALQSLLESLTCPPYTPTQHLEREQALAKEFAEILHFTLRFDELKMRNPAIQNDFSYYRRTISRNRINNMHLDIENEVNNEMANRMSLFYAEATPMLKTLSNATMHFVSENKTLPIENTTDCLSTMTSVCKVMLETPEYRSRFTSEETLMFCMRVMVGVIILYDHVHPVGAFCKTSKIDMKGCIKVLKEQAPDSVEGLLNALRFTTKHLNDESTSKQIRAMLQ

Kd: 2470 nM
Substance: untagged full-length RAC1 Q61L (from UniProt P63000 1-192) (enzyme; other documents disagree on this pair)
